Laboratory results reported in patent US20180334496A1 (KODIAK SCIENCES, published 2018).
Values joined by “and” are separate entries in the source; they are usually repeats but may differ in a detail not shown here. Identical values can stand only once.

B1: KCD119 TAF heavy chain / KCD119 TAF light chain (antibody, V domains shown)
VH: EVQLVESGGGLVQPGGSLRLSCAASGYTFTDYYMNWVRQAPGKGLEWIGDINPNTGDTSYNADFKRRFTFSLDTSKSTAYLQMNSLRAEDTAVYYCTREGPSFAYWGQGTLVTVSS
VL: DIQLTQSPSSLSASVGDRVTITCRSSQTIVHSNGDTYLEWYQQKPGKAPNLLIYKVSNRFSGVPSRFSGSGSGTDFTLTISSLQPEDFATYYCFQGSHVPPTFGQGTKVEIK
notes: humanized full IgG captured on protein A; also called TAF KCD119
B2: 54V59D heavy chain / 101V light chain (antibody, V domains shown)
VH: EVQLVESGGGLVQPGGSLRLSCAASGYTFTDYYMNWVRQAPGKGLEWIGDINPVTGDTDYNADFKRRFTFSLDTSKSTAYLQMNSLRAEDTAVYYCTREGPSFAYWGQGTLVTVSS
VL: DIQLTQSPSSLSASVGDRVTITCRSSQTIVHSNGDTYLEWYQQKPGKAPNLLIYKVSNRFSGVPSRFSGSGSGTDFTLTISSLQPEDFATYYCFQGSHVPVTFGQGTKVEIK
notes: IgG
B3: 54V59D heavy chain / KCD119 TAF light chain (antibody, V domains shown)
VH: EVQLVESGGGLVQPGGSLRLSCAASGYTFTDYYMNWVRQAPGKGLEWIGDINPVTGDTDYNADFKRRFTFSLDTSKSTAYLQMNSLRAEDTAVYYCTREGPSFAYWGQGTLVTVSS
VL: DIQLTQSPSSLSASVGDRVTITCRSSQTIVHSNGDTYLEWYQQKPGKAPNLLIYKVSNRFSGVPSRFSGSGSGTDFTLTISSLQPEDFATYYCFQGSHVPPTFGQGTKVEIK
notes: IgG
B4: 54V heavy chain / 101V light chain (antibody, V domains shown)
VH: EVQLVESGGGLVQPGGSLRLSCAASGYTFTDYYMNWVRQAPGKGLEWIGDINPVTGDTSYNADFKRRFTFSLDTSKSTAYLQMNSLRAEDTAVYYCTREGPSFAYWGQGTLVTVSS
VL: DIQLTQSPSSLSASVGDRVTITCRSSQTIVHSNGDTYLEWYQQKPGKAPNLLIYKVSNRFSGVPSRFSGSGSGTDFTLTISSLQPEDFATYYCFQGSHVPVTFGQGTKVEIK
notes: IgG
B5: 54V heavy chain / KCD119 TAF light chain (antibody, V domains shown)
VH: EVQLVESGGGLVQPGGSLRLSCAASGYTFTDYYMNWVRQAPGKGLEWIGDINPVTGDTSYNADFKRRFTFSLDTSKSTAYLQMNSLRAEDTAVYYCTREGPSFAYWGQGTLVTVSS
VL: DIQLTQSPSSLSASVGDRVTITCRSSQTIVHSNGDTYLEWYQQKPGKAPNLLIYKVSNRFSGVPSRFSGSGSGTDFTLTISSLQPEDFATYYCFQGSHVPPTFGQGTKVEIK
notes: IgG; also called 54V/wt
B6: KCD119 TAF / KCD119 TAF (antibody, V domains shown)
VH: EVQLVESGGGLVQPGGSLRLSCAASGYTFTDYYMNWVRQAPGKGLEWIGDINPNTGDTSYNADFKRRFTFSLDTSKSTAYLQMNSLRAEDTAVYYCTREGPSFAYWGQGTLVTVSS
VL: DIQLTQSPSSLSASVGDRVTITCRSSQTIVHSNGDTYLEWYQQKPGKAPNLLIYKVSNRFSGVPSRFSGSGSGTDFTLTISSLQPEDFATYYCFQGSHVPPTFGQGTKVEIK
notes: Humanized KCD119; tested as full antibody captured on protein A; also called D19 TAF
B7: 31S34I54I59D84S / 54G101V (antibody, V domains shown)
VH: EVQLVESGGGLVQPGGSLRLSCAASGYTFTSYYINWVRQAPGKGLEWIGDINPITGDTDYNADFKRRFTFSLDTSKSTAYLQMSSLRAEDTAVYYCTREGPSFAYWGQGTLVTVSS
VL: DIQLTQSPSSLSASVGDRVTITCRSSQTIVHSNGDTYLEWYQQKPGKAPNLLIGKVSNRFSGVPSRFSGSGSGTDFTLTISSLQPEDFATYYCFQGSHVPVTFGQGTKVEIK
notes: KCD119 TAF variant; full antibody captured on protein A; also called 31S34I54I59D845 / 54G101V; 3I534I54I59D84S / 54G101V
B8: 31S34I54I59D84S / 54R101V (antibody, V domains shown)
VH: EVQLVESGGGLVQPGGSLRLSCAASGYTFTSYYINWVRQAPGKGLEWIGDINPITGDTDYNADFKRRFTFSLDTSKSTAYLQMSSLRAEDTAVYYCTREGPSFAYWGQGTLVTVSS
VL: DIQLTQSPSSLSASVGDRVTITCRSSQTIVHSNGDTYLEWYQQKPGKAPNLLIRKVSNRFSGVPSRFSGSGSGTDFTLTISSLQPEDFATYYCFQGSHVPVTFGQGTKVEIKR
notes: KCD119 TAF variant; also called 3I534I54I59D84S / 54R101V
B9: 31S34I54I59D / 54R101V (antibody, V domains shown)
VH: EVQLVESGGGLVQPGGSLRLSCAASGYTFTSYYINWVRQAPGKGLEWIGDINPITGDTDYNADFKRRFTFSLDTSKSTAYLQMNSLRAEDTAVYYCTREGPSFAYWGQGTLVTVSS
VL: DIQLTQSPSSLSASVGDRVTITCRSSQTIVHSNGDTYLEWYQQKPGKAPNLLIRKVSNRFSGVPSRFSGSGSGTDFTLTISSLQPEDFATYYCFQGSHVPVTFGQGTKVEIKR
notes: KCD119 TAF variant
B10: 34I54I59D84S / 54G101V (antibody, V domains shown)
VH: EVQLVESGGGLVQPGGSLRLSCAASGYTFTDYYINWVRQAPGKGLEWIGDINPITGDTDYNADFKRRFTFSLDTSKSTAYLQMSSLRAEDTAVYYCTREGPSFAYWGQGTLVTVSS
VL: DIQLTQSPSSLSASVGDRVTITCRSSQTIVHSNGDTYLEWYQQKPGKAPNLLIGKVSNRFSGVPSRFSGSGSGTDFTLTISSLQPEDFATYYCFQGSHVPVTFGQGTKVEIK
notes: also called 34I54I59D845 / 54G101V
B11: KCD008 (antibody, V domains shown)
VH: EVQLQQSGPELVKAGASVKMSCTASGFNIKDTYMHWVKQRPEQGLAWIGRIDPANGNIKYDPKFQGKATITADTSSNTAYLQLSSLTSDDTAVYYCTSAMDYWGQGTSVTVSS
VL: QIVLTQSPEIMSASPGEKVTMTCSARSSVSYMYWYQQKPGSSPRLLIYDTSNLASGVPVRFSGSGSGTSYSLTISRMETEDAATYYCQQWSTYPFTFGSGTKLEIK
B12: KCD018 (antibody, V domains shown)
VH: QVQLQQSAAELARPGASVKMSCKASGYTFTSYTVHWVKQRPGQGLEWIGYINPSSGFTDYNQKFKDKTTLTADISSSTAYIQLSSLTSEDSAVYYCARRGVNWSWFAYWGQGTLVTVSA
VL: NIMMTQSPSSLAVSAGEKVTMSCKSSQSVLYSSNQKNYLAWYQQKPGQSPQLLIYWASTRESGVPERFTGSGSGTDFTLTISSVQAEDLAVYYCHQYLSSWTFGGGTKLEIK
B13: KCD065 (antibody, V domains shown)
VH: QVQLQQSGAELARPGASVKMSCKASGYTFTTYTIHWVKQRPGQGLEWIGYINPSSDFTNYNQNFADKATLTADRSSSTAYMQLSSLTSEESAVYYCAIRLGYDRQGWYFDVWGAGTTVTVSS
VL: DIVMTQSHKFLSTSLGDRVSITCKASQDVGSAVAWYQQKPGQSPDLLIYWTFTRHTGVPDRFTGSRSGTDFTLTISNVQSGDLADYFCQQYSNYPLTFGGGTKLEIK
B14: KCD135 (antibody, V domains shown)
VH: EVQLQQSGPELVKPGASVRMSCKASGYIFTDYSIHWVKQSHGKSLEWIGYINPNNGGTSYNQKFKGKATLTVNKSSTTAYMELRSLTSEDSAVYFCARDTTIVGDYWGQGTTLTVSS
VL: DIVMTQSQKFMSTSVGDRVSVTCKASQHVGTNVVWYQQKPGQSPKALIYSASYRYSGVPDRFSGSGSGTDFTLTISNVQSEDLAEYFCQQFNSYPLTFGGGTKLEIK
B15: KCD210 (antibody, V domains shown)
VH: EVQLQQSGPVLVKPGASVTMSCKASGYTFTEYYMNWVKQSHGKSLDWIGVINPYSGGTSYKQKFKDKATLTVDKSSSTAYMELNGLTSEDSAVYFCVRGGLRRNYFDYWGQGTTLTVSS
VL: EIVLTQSPALMTASPGEKVTITCSVSSSISSTNLHWYQQKSGTSPKPWIFGTSNLASGVPVRFSGSGSGTSYSLTISNMEAEDAATYYCQQWNSYPFTFGTGTKLEIK

How the values were obtained:
[1] = molecular target: T1, human complement factor D purified from serum (human, UniProt P00746 26-253); experiment: Biacore, protein A capture
T1 construct: serum-purified (CompTech); also called hCFD-Comptech; CFD

[2] = molecular target: T2, serum purified human Complement Factor D (human, UniProt P00746 26-253); experiment: SPR Biacore, antibody on protein A chip, single cycle kinetics, 37 C
T2 construct: Serum purified protein flowed over the captured antibodies; also called CFD; human CFD

[3] = molecular target: T2, serum purified human Complement Factor D; experiment: SPR Biacore, antibody on protein A chip, single cycle kinetics, 25 C
[4] = molecular target: T2, serum purified human Complement Factor D; experiment: as above; remark: listed apart in the source
[5] = molecular target: T2, serum purified human Complement Factor D; experiment: SPR Biacore, antibody on protein A chip, single cycle kinetics, 37 C; remark: listed apart in the source
[6] = molecular target: T2, serum purified human Complement Factor D; experiment: SPR Biacore, 37 C
[7] = molecular target: T2, serum purified human Complement Factor D; experiment: SPR Biacore, 25 C
[8] = molecular target: T3, recombinant cynomolgus CFD, His-tagged (cynomolgus); experiment: SPR MX96
T3 construct: also called rcyCFD-His; recombinant Cyno-CFD

[9] = molecular target: T4, recombinant human CFD mutant 1 (R157A, R207A), His-tagged (human, UniProt P00746 26-253); experiment: SPR MX96
T4 construct: positions are linear positions in the mature protein; also called rhCFD-mut1-His; Mut1

[10] = molecular target: T5, recombinant human CFD, His-tagged (human, UniProt P00746 26-253); experiment: SPR MX96
T5 construct: also called rhCFD-His

[11] = molecular target: T1, human complement factor D purified from …; experiment: SPR MX96

T2 sequence (P00746 26-253): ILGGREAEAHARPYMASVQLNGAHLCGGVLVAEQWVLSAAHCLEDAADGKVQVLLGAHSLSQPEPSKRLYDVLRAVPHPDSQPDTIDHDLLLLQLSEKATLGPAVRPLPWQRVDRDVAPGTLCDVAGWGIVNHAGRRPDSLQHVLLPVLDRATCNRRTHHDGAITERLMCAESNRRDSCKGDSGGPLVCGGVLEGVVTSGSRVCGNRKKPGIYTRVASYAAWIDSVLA
T1 sequence (P00746 26-253): as above
T5 sequence (P00746 26-253 limits assumed): as the sequence (P00746 26-253) above
T4 sequence (P00746 26-253 R182A/R232A limits assumed): as the sequence (P00746 26-253) above, with R157A, R207A counted along it

Binder	Kd [1]	koff [1]	kon [1]	kon [3]	Kd [5]	koff [5]	kon [5]	Kd [8]	Kd [9]	Kd [10]	Kd [11]	other results
B1	0.23 nM	0.00103 s⁻¹	4.46e+06 M⁻¹ s⁻¹	–	–	–	–	–	–	–	–	–
B2	0.0321 nM	0.000213 s⁻¹	6.64e+06 M⁻¹ s⁻¹	–	–	–	–	–	–	–	–	–
B3	0.0526 nM	0.000307 s⁻¹	5.85e+06 M⁻¹ s⁻¹	–	–	–	–	–	–	–	–	–
B4	0.0949 nM	0.000463 s⁻¹	4.88e+06 M⁻¹ s⁻¹	–	–	–	–	–	–	–	–	–
B5	0.153 nM	0.000627 s⁻¹	4.09e+06 M⁻¹ s⁻¹	–	–	–	–	–	–	–	–	–
B6	–	–	–	1.38e+07 M⁻¹ s⁻¹	0.499 nM	0.00628 s⁻¹	1.26e+07 M⁻¹ s⁻¹	–	–	–	–	Kd [2]: 0.499 nM; koff [2]: 0.00628 s⁻¹; kon [2]: 1.26e+07 M⁻¹ s⁻¹; Kd [3]: 0.113 nM; koff [3]: 0.00155 s⁻¹; Kd [4]: 0.113 nM; koff [4]: 0.00155 s⁻¹; kon [4]: 1.38e+07 M⁻¹ s⁻¹
B7	–	–	–	4.42e+06 M⁻¹ s⁻¹	0.00611 nM	7.36e-05 s⁻¹	1.21e+07 M⁻¹ s⁻¹	–	–	–	–	Kd [2]: 0.00611 nM; koff [2]: 7.36e-05 s⁻¹; kon [2]: 1.21e+07 M⁻¹ s⁻¹; kon [4]: 4.42e+06 M⁻¹ s⁻¹
B8	–	–	–	1.66e+07 M⁻¹ s⁻¹	0.00392 nM	0.000137 s⁻¹	3.5e+07 M⁻¹ s⁻¹	–	–	–	–	Kd [2]: 0.00392 nM; koff [2]: 0.000137 s⁻¹; kon [2]: 3.5e+07 M⁻¹ s⁻¹; Kd [3]: < 0.000602 nM; koff [3]: < 1e-05 s⁻¹; Kd [4]: < 0.000602 nM; koff [4]: < 1e-05 s⁻¹; kon [4]: 1.66e+07 M⁻¹ s⁻¹
B9	–	–	–	1.39e+07 M⁻¹ s⁻¹ and 1.32e+07 M⁻¹ s⁻¹	0.00583 nM and 0.00961 nM	0.000157 s⁻¹ and 0.000237 s⁻¹	2.69e+07 M⁻¹ s⁻¹ and 2.46e+07 M⁻¹ s⁻¹	–	–	–	–	Kd [6]: 0.00961 nM; koff [6]: 0.000237 s⁻¹; kon [6]: 2.46e+07 M⁻¹ s⁻¹; Kd [3]: 0.0076 nM and 0.00596 nM; koff [3]: 0.000106 s⁻¹ and 7.84e-05 s⁻¹; Kd [7]: 0.00596 nM; koff [7]: 7.84e-05 s⁻¹; kon [7]: 1.32e+07 M⁻¹ s⁻¹
B10	–	–	–	7.59e+06 M⁻¹ s⁻¹	0.00774 nM	0.000112 s⁻¹	1.45e+07 M⁻¹ s⁻¹	–	–	–	–	Kd [2]: 0.00774 nM; koff [2]: 0.000112 s⁻¹; kon [2]: 1.45e+07 M⁻¹ s⁻¹; Kd [3]: 0.00683 nM; koff [3]: 5.18e-05 s⁻¹; Kd [4]: 0.00683 nM; koff [4]: 5.18e-05 s⁻¹; kon [4]: 7.59e+06 M⁻¹ s⁻¹
B11	–	–	–	–	–	–	–	66 nM	5.7 nM	3.2 nM	4.4 nM	–
B12	–	–	–	–	–	–	–	52 nM	99 nM	41 nM	41 nM	–
B13	–	–	–	–	–	–	–	25 nM	25 nM	17 nM	3.3 nM	–
B14	–	–	–	–	–	–	–	18 nM	15 nM	13 nM	21 nM	–
B15	–	–	–	–	–	–	–	3.6 nM	2.9 nM	2.9 nM	3.5 nM	–
